Test results published in PMC7295619.

Biological target: Porcine circovirus type 3 (PCV3) capsid protein (porcine circovirus type 3)
Assay: cryo-EM structure; in vitro assembled full-length PCV3-VLP, 1 mg/ml, Titan Krios 300 kV, EMAN2 reconstruction with icosahedral symmetry applied, ~8.5 Å

## Porcine circovirus type 3 (PCV3) capsid protein (natural protein)
  stoichiometry N: 60
